B1: human TFIIH p62 PH domain (PH-D) (residues 1–108) (domain or fragment)
chain: MATSSEEVLLIVKKVRQKKQDGALYLMAERIAWAPEGKDRFTISHMYADIKCQKISPEGKAKIQLQLVLHAGDTTNFHFSNESTAVKERDAVKDLLQQLLPKFKRKAN

What was measured:
[1] = target: human RPB6 (residues 1–127), full-length (human, UniProt P61218 1-127); experiment: NMR
[2] = target: B1; experiment: ITC

Binder	Kd [1]	Kd [2]
B1	4.13 µM	
MSDNEDNFDGDDADDVEEDEGLDD [human RPB6 (residues 1–24) F13A]		18.1 µM

From article PMC8754651 (2021)
